{"source": "patent US20020061306A1", "target": "different strains of S. pyogenes (surface of the bacteria)", "data": [{"binder": "α2-macroglobulin (native α2M) (protein, UniProt P01023 24-1474, looked up) SVSGKPQYMVLVPSLLHTETTEKGCVLLSYLNETVTVSASLESVRGNRSLFTDLEAENDVLHCVAFAVPKSSSNEEVMFLTVQVKGPTQEFKKRTTVMVKNEDSLVFVQTDKSIYKPGQTVKFRVVSMDENFHPLNELIPLVYIQDPKGNRIAQWQSFQLEGGLKQFSFPLSSEPFQGSYKVVVQKKSGGRTEHPFTVEEFVLPKFEVQVTVPKIITILEEEMNVSVCGLYTYGKPVPGHVTVSICRKYSDASDCHGEDSQAFCEKFSGQLNSHGCFYQQVKTKVFQLKRKEYEMKLHTEAQIQEEGTVVELTGRQSSEITRTITKLSFVKVDSHFRQGIPFFGQVRLVDGKGVPIPNKVIFIRGNEANYYSNATTDEHGLVQFSINTTNVMGTSLTVRVNYKDRSPCYGYQWVSEEHEEAHHTAYLVFSPSKSFVHLEPMSHELPCGHTQTVQAHYILNGGTLLGLKKLSFYYLIMAKGGIVRTGTHGLLVKQEDMKGHFSISIPVKSDIAPVARLLIYAVLPTGDVIGDSAKYDVENCLANKVDLSFSPSQSLPASHAHLRVTAAPQSVCALRAVDQSVLLMKPDAELSASSVYNLLPEKDLTGFPGPLNDQDNEDCINRHNVYINGITYTPVSSTNEKDMYSFLEDMGLKAFTNSKIRKPKMCPQLQQYEMHGPEGLRVGFYESDVMGRGHARLVHVEEPHTETVRKYFPETWIWDLVVVNSAGVAEVGVTVPDTITEWKAGAFCLSEDAGLGISSTASLRAFQPFFVELTMPYSVIRGEAFTLKATVLNYLPKCIRVSVQLEASPAFLAVPVEKEQAPHCICANGRQTVSWAVTPKSLGNVNFTVSAEALESQELCGTEVPSVPEHGRKDTVIKPLLVEPEGLEKETTFNSLLCPSGGEVSEELSLKLPPNVVEESARASVSVLGDILGSAMQNTQNLLQMPYGCGEQNMVLFAPNIYVLDYLNETQQLTPEIKSKAIGYLNTGYQRQLNYKHYDGSYSTFGERYGRNQGNTWLTAFVLKTFAQARAYIFIDEAHITQALIWLSQRQKDNGCFRSSGSLLNNAIKGGVEDEVTLSAYITIALLEIPLTVTHPVVRNALFCLESAWKTAQEGDHGSHVYTKALLAYAFALAGNQDKRKEVLKSLNEEAVKKDNSVHWERPQKPKAPVGHFYEPQAPSAEVEMTSYVLLAYLTAQPAPTSEDLTSATNIVKWITKQQNAQGGFSSTQDTVVALHALSKYGAATFTRTGKAAQVTIQSSGTFSSKFQVDNNNRLLLQQVSLPELPGEYSMKVTGEGCVYLQTSLKYNILPEKEEFPFALGVQTLPQTCDEPKAHTSFQISLSVSYTGSRSASNMAIVDVKMVSGFIPLKPTVKMLERSNHVSRTEVSSNHVLIYLDKVSNQTLSLFFTVLQDVPVRDLKPAIVKVYDYYETDEFAIAEYNAPCSKDLGNA", "values": [{"measurement": "% of added radiolabeled α2M bound", "result": "0 to 76", "unit": "%"}]}]}
